Paper PMC5138414, “Structural Basis for Redox Regulation of Cytoplasmic and Chloroplastic Triosephosphate Isomerases from Arabidopsis thaliana” (Frontiers in Plant Science, 2016)
Changes are numbered by the printed parent chain. In names and notes the source's numbering stands.

B1: cTPI-C218S (enzyme, Arabidopsis thaliana, UniProt P48491 1-254, looked up)
chain: MARKFFVGGNWKCNGTAEEVKKIVNTLNEAQVPSQDVVEVVVSPPYVFLPLVKSTLRSDFFVAAQNCWVKKGGAFTGEVSAEMLVNLDIPWVILGHSERRAILNESSEFVGDKVAYALAQGLKVIACVGETLEEREAGSTMDVVAAQTKAIADRVTNWSNVVIAYEPVWAIGTGKVASPAQAQEVHDELRKWLAKNVSADVAATTRIIYGGSVNGGNSKELGGQADVDGFLVGGASLKPEFIDIIKAAEVKKSA
notes: cytoplasmic triosephosphate isomerase, Arabidopsis thaliana, At3g55440, point mutant; Made by site-directed mutagenesis of the cTPI construct; source: E. coli BL21 (DE3) Δtpi, purified (IMAC His-Trap FF, Superdex 75)
B2: cTPI-C13S (enzyme, Arabidopsis thaliana, UniProt P48491 1-254, looked up)
chain: B1 chain with C13S, S218C
notes: as for B1
B3: cTPI-C13S/C218S (enzyme, Arabidopsis thaliana, UniProt P48491 1-254, looked up)
chain: B1 chain with C13S
notes: cytoplasmic triosephosphate isomerase, Arabidopsis thaliana, At3g55440, double mutant; Made by site-directed mutagenesis of the cTPI construct; also called cTPI double mutant; source: E. coli BL21 (DE3) Δtpi, purified (IMAC His-Trap FF, Superdex 75)

Molecular target: the molecule itself
Assay: SEC; analytical size-exclusion chromatography, Superdex 75 10/300GL, calibrated with Bio-Rad gel filtration standard, 0.5 mL/min, 100 mM TEA pH 7.4, 10 mM EDTA, 1 mM DTT; dimer of identical subunits

Row | Protein | binding result | stoichiometry N
1 | B1 | binds | –
2 | B2 | – | 2
3 | B3 | – | 2
